Values quoted from earlier work as cited in PMC7599640.

Biological target: alpha-bungarotoxin (Bungarus multicinctus) (UniProt P60615)
UniProt P60615, sequence (P60615 22-95): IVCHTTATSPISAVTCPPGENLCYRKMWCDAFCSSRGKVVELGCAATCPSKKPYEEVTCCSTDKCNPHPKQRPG

## Nicotinic acetylcholine receptor (from UniProt P02710)
  Kd: 0.4 nM
